Results as given in article PMC3680705 (The Journal of biological chemistry, 2006).

Molecular target: T1, Drosophila Slit D2 (second leucine-rich repeat domain) (Drosophila, UniProt P24014 310-526, two N-linked glycans)
T1 sequence: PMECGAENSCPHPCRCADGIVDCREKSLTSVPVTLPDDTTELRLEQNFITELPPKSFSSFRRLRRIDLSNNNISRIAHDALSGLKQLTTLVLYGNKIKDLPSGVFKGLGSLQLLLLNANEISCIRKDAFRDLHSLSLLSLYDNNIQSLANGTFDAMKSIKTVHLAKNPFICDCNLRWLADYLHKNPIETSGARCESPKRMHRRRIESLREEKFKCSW
Experiment: SEC

B1: Drosophila Robo IG1–2 (domain or fragment)
chain: not shown
stoichiometry N: 1
